Source: US20240018237A1 (SICHUAN KELUN BIOTECH BIOPHARMACEUTICAL, published 2024)
Changes are numbered by the printed parent chain. Where two headings read alike, the source gives them in different places. Blank lines part the entries; values can stand above or below the binder they belong to.

Assays:
[1] = molecular target: T1, human ROR1 (full-length, on the cell surface) (human, UniProt Q01973 30-937); experiment: cell-based or functional assay
[2] = molecular target: T1, human ROR1 (full-length, on the cell …); experiment: cell-based or functional assay; remark: listed apart in the source
[3] = molecular target: T1, human ROR1 (full-length, on the cell …); experiment: flow cytometry, A549 cells
[4] = molecular target: T1, human ROR1 (full-length, on the cell …); experiment: flow cytometry, HT-29 cells
[5] = molecular target: T1, human ROR1 (full-length, on the cell …); experiment: flow cytometry, Jeko-1 cells
[6] = molecular target: T1, human ROR1 (full-length, on the cell …); experiment: flow cytometry, Ba/F3-ROR1 cells
human ROR1 ECD protein [7] = molecular target: T2, human ROR1 ECD protein (human, UniProt Q01973 30-406); experiment: BLI (Octet), antibody on AHC sensor, ROR1 ECD in solution
T2 construct: range 30-406; Expressed in Expi293 or ExpiCHO cells; also called Recombinant human ROR ECD
T2 sequence (Q01973 30-406): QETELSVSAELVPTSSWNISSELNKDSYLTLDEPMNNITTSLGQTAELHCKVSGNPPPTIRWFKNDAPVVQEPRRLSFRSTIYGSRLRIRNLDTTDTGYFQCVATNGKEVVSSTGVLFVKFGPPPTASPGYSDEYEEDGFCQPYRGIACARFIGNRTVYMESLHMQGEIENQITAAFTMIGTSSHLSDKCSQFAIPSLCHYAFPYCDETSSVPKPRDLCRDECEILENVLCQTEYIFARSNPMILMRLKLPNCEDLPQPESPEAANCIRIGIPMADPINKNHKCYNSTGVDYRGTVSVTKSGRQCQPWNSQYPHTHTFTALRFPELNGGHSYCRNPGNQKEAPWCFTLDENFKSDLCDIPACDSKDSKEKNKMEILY

human ROR1 ECD protein [8] = molecular target: T2, human ROR1 ECD protein; experiment: BLI (Octet), antibody on AHC sensor, ROR1 ECD in solution, 1:1 model
Experimental: The dynamic affinities of humanized molecules 19F6-Hu35V1, 3D8-HuC24 and 38F8-Hu57 and positive control antibody UC961 to human ROR1 ECD protein were determined by Octet ForteBio method.

[9] = molecular target: T3, human ROR2 extracellular domain (ECD) protein (human, UniProt Q01974 34-403); experiment: ELISA on coated human ROR2 ECD protein (1 ug/mL), OD at 450 nm
T3 construct: extracellular domain; Bought protein; also called human ROR2 ECD protein; Sino Biologicals 16133-H08H
T3 sequence (Q01974 34-403): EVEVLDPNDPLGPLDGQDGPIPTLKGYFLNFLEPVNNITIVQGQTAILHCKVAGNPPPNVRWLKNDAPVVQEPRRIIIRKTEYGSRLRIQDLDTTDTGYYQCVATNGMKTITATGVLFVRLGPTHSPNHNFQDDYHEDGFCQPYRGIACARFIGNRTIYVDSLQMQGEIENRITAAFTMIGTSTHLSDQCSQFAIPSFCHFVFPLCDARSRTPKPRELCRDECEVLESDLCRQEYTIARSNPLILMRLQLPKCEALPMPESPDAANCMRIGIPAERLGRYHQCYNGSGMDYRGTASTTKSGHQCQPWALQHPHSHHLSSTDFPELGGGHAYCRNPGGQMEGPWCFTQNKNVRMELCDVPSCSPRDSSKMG
Experimental: It was confirmed by ELISA using extracellular domain (ECD) protein of human ROR2 that the binding specificity of the candidate antibodies to human ROR1 was higher than that of human ROR2. The specific method was as follows: 1 μg/mL human ROR2 extracellular domain (ECD) protein (Sino Biologicals, Cat. No.: 16133-H08H) was added in a 96-well ELISA plate (Thermo Fisher, Cat. No.: 5129) at 100 μL/well, for coating overnight at 4° C. 200 μL of washing buffer (1×TBS containing 0.05% Tween-20) was used to wash 3 times, different concentrations of eight purified mouse-anti-human ROR1 candidate antibodies and UC961 were added at 100 μL, incubated at 37° C. for 1 hour, and mouse-anti-human ROR2 antibody (R&D systems, Cat. No.: MAB2064) was used as a positive control. Washing was performed 3 times with 200 μL of washing buffer, 100 μL of anti-human IgG (Rockland Inc, Cat. No. 609-1304) or anti-mouse IgG secondary antibody (Rockland Inc, Cat. No. 610-1304) diluted at a ratio of 1:10000 were added to each well, incubated at 37° C. for 1 hour. Washing was performed 3 times with 200 μL of washing buffer, 100 μL of TMB (Thermo Fisher, Cat. No.: TMBW-1000-01) was added for color development in the dark for 10 minutes, then 100 μL of stop solution (Thermo Fisher, Cat. No.: 13361-100-10) was added to stop the color development, and reading was carried out by microplate reader at 450 nm.

[10] = molecular target: T1, human ROR1 (full-length, on the cell …); experiment: flow cytometry on HT29 cells, MFI against antibody concentration
Text: (§1) The affinity of the candidate antibodies to ROR1 on the surface of human cells was detected by flow cytometry. In addition to the Ba/F3-ROR1 overexpression cells, human mantle cell lymphoma cell line Jeko-1 (ATCC, Cat. No.: CRL-3006), human colon cancer cell line HT-29 (ATCC, Cat. No.: HTB-38), human lung cancer cell line A549 (ATCC, Cat. No.: CCL-185) were also used for the binding assay. The anti-human ROR1 antibody UC961 (for sequence, see WO2018237335A1) with mouse or human IgG1 Fc was used as a positive control, and the anti-2,4,6-trinitrophenol antibody (ATCC) with the corresponding mouse or human IgG1 Fc was used as a negative control. Mouse IgG isotype control (Thermo Fisher, Cat. No.: 31903) was also used as a negative control.

[11] = molecular target: T1, human ROR1 (full-length, on the cell …); experiment: flow cytometry on A549 cells, MFI against antibody concentration
Text: as §1

[12] = molecular target: T1, human ROR1 (full-length, on the cell …); experiment: flow cytometry on Jeko-1 cells, MFI against antibody concentration
Text: as §1

[13] = molecular target: T1, human ROR1 (full-length, on the cell …); experiment: flow cytometry, A549 cells; remark: listed apart in the source
Experimental: (§2) The affinities of the purified anti-human ROR1 chimeric antibodies binding to the Ba/F3-ROR1, Jeko-1, HT-29 and A549 cells were analyzed by flow cytometry. The specific experimental steps were as follows: the Ba/F3-ROR1, Jeko-1, HT-29 and A549 cells were incubated with the purified chimeric antibodies of different concentration gradients on ice for 30 minutes, and the anti-ROR1 antibody UC961 with human IgG1 and the anti-TNP antibody were used as positive and negative controls respectively.

[14] = molecular target: T1, human ROR1 (full-length, on the cell …); experiment: flow cytometry, HT-29 cells; remark: listed apart in the source
Experimental: as §2

[15] = molecular target: T1, human ROR1 (full-length, on the cell …); experiment: flow cytometry, Jeko-1 cells; remark: listed apart in the source
Experimental: as §2

[16] = molecular target: T1, human ROR1 (full-length, on the cell …); experiment: flow cytometry, Ba/F3-ROR1 cells; remark: listed apart in the source
Experimental: as §2

human ROR1 ECD protein [17] = molecular target: T2, human ROR1 ECD protein; experiment: BLI (Octet), antibody on AHC sensor, ROR1 ECD in solution, 1:1 model; remark: listed apart in the source
Text: Octet ForteBio is widely used in the detection of antibody-antigen dynamic affinity. This method was used to determine the dynamic affinities of the candidate chimeric antibodies 3D8-Chi, 19F6-Chi and 38F8-Chi and the positive control antibody UC961 to human ROR1.

[18] = molecular target: T1, human ROR1 (full-length, on the cell …); experiment: flow cytometry, Ba/F3-ROR1 cells; remark: listed apart in the source
Experimental: The affinities of the anti-human ROR1 humanized antibodies to Ba/F3-ROR1, Jeko-1, HT-29 and A549 cells were detected by flow cytometry. The specific experimental steps were as follows: the BaBF3-ROR1, Jeko-1, HT-29 and A549 cells were incubated with the purified humanized antibodies of different concentration gradients on ice for 30 minutes, and the anti-ROR1 antibody UC961 with human IgG1 and the anti-TNP antibody were used as positive and negative controls, respectively.

T1 sequence (Q01973 30-937): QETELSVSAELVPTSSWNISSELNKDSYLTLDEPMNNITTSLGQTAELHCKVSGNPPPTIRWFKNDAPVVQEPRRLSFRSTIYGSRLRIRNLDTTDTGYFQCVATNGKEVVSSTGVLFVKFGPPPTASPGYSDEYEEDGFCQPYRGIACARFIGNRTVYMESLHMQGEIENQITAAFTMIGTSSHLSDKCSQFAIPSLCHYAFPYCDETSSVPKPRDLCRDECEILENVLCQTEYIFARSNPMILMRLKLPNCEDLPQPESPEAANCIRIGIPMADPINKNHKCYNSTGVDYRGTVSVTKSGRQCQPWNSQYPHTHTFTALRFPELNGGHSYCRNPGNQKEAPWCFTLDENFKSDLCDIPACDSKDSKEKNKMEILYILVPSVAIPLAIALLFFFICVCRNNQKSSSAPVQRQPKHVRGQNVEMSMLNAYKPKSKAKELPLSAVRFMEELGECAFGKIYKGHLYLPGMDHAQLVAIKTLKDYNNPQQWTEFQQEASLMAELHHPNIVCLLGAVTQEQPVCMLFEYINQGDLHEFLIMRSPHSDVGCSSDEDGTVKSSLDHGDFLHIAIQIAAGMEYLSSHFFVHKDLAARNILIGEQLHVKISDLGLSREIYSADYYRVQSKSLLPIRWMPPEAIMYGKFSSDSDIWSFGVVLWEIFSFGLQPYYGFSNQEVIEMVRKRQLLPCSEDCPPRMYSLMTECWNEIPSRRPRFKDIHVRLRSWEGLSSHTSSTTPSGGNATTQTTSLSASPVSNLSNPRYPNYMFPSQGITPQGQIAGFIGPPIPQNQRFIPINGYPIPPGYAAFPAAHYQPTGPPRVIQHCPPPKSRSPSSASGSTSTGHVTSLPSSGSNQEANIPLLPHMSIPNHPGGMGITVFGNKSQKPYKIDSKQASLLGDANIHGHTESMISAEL

- internalization activity in N87 cells (pHrodo dye), fold over UC961 [1]: ~7 fold
- EC50 [3]: 0.08 nM
- EC50 [4]: 0.15 nM
- EC50 [5]: 0.12 nM
- EC50 [6]: 0.17 nM
- fold stronger affinity than UC961 (by KD) (human ROR1 ECD protein [7]): 5.4 fold
- Kd (human ROR1 ECD protein [8]): 1.61 nM
- koff (human ROR1 ECD protein [8]): 0.000863 s⁻¹
- kon (human ROR1 ECD protein [8]): 538000 M⁻¹ s⁻¹
B1: 19F6-Hu35V1 (antibody, human IgG1, kappa, V domains shown)
VH: QVQLQESGPGLVKPSQTLSLTCTVSGYSITSDYAWNWIRQFPGKGLEWIGYISYSGSIRYNPSLKSRVTISRDTSKNQFSLKLSSVTAADTAVYYCARGEITYYFDYWGQGTLVTVSS
VL: ETTLTQSPAFMSATPGDKVTISCKASTSIDDDMNWYQQKPGEPPKLIISEGNTLRPGIPPRFSSSGYGTDFTFTINKIKSEDAATYYCLQSNDLPLTFGQGTKLEIKR
notes: humanized, human IgG1 / kappa
- EC50 of ADCC killing of Ba/F3-ROR1 cells by NK92MI-mCD16a-hFceRI cells [2]: 0.31 nM

- activity of inducing internalization on Jeko-1 cells (Mab-ZAP, by IC50), fold over UC961 [1]: 23.4 fold
- binding result [9]: no binding (tested: about 5000 ng/ml)
- EC50 (read off the curve) [10]: ~20 ng/mL
- EC50 (read off the curve) [11]: ~10 ng/mL
- EC50 (read off the curve) [12]: ~8 ng/mL
B2: Murine antibody 19F6.2.3 (antibody, V domains shown)
VH: DVQLQESGPGLVKPSQSLSLTCTVTGYSITSDYAWNWIRQFPGNKLEWMGYISYSGSIRYNPSLKSRISITRDTSKNQFFLQLNSVTTEDTATYYCARGEITYYFDYWGQGTTLTVSS
VL: DIKMTQSPASLSMAIGEKVTIRCITTTDIDDDMNWYQQKPGEPPKLLISEGNTLRPGVPSRFSSSGYGTDFVFTIENMVSEDVADYYCLQSNDLPLTFGAGTKLELK
notes: Hybridoma antibody

- EC50 [3]: 0.29 nM
- EC50 [4]: 0.17 nM
- EC50 [5]: 0.04 nM
- EC50 [18]: 0.23 nM
- Kd (human ROR1 ECD protein [8]): 26.1 nM
- koff (human ROR1 ECD protein [8]): 0.0153 s⁻¹
- kon (human ROR1 ECD protein [8]): 586000 M⁻¹ s⁻¹
B4: 3D8-HuC24 (antibody, human IgG1, kappa, V domains shown)
VH: EVQLVESGGGLVQPGGSLRLSCAASGFTFSSYAMSWVRQAPGKGLEWVASINSGGSTYYPDSVKGRFTISRDNAKNSLYLQMNSLRAEDTAVYYCARVNYYGYGDYAMDYWGQGTLVTVSS
VL: DIQMTQSPSSLSASVGDRVTITCQASQDISNYLTWFQQKPGKSPKTLIHRANRLVTGVPSRFSGSGSGTDFTFTISSLQPEDIATYYCLQYDEFPYTFGGGTKVEIKR
notes: humanized, human IgG1 / kappa
- EC50 of ADCC killing of Ba/F3-ROR1 cells by NK92MI-mCD16a-hFceRI cells [2]: 0.28 nM

More lines, now with the values behind:

B3: 19F6-Chi (antibody, human IgG1, kappa, V domains shown)
VH: B2 VH
VL: DIKMTQSPASLSMAIGEKVTIRCITTTDIDDDMNWYQQKPGEPPKLLISEGNTLRPGVPSRFSSSGYGTDFVFTIENMVSEDVADYYCLQSNDLPLTFGAGTKLELKR
notes: Variable regions of 19F6.2.3 on human IgG1 / kappa constant regions; also called anti-human ROR1 chimeric antibody 19F6-Chi
- EC50 [13]: 0.087 nM
- EC50 [14]: 0.266 nM
- EC50 [15]: 0.271 nM
- EC50 [16]: 0.325 nM
- fold stronger affinity than UC961 (by KD) (human ROR1 ECD protein [7]): 34.6 fold
- Kd (human ROR1 ECD protein [17]): 0.456 nM
- koff (human ROR1 ECD protein [17]): 0.000514 s⁻¹
- kon (human ROR1 ECD protein [17]): 1.13e+06 M⁻¹ s⁻¹

B5: 38F8-Hu57 (antibody, human IgG1, kappa, V domains shown)
VH: EVQLVESGGGLVQPGGSLRLSCAASGFTFSNYAMSWVRQAPEKRLEWVASISSGGPTYYPDSVKGRFTVSRDNSKNTLYLQMNSLRAEDTAVYYCARGYRYDVNWYFDVWGAGTMVTVSS
VL: B4 VL with F71Y, T85I
notes: humanized, human IgG1 / kappa
- EC50 of ADCC killing of Ba/F3-ROR1 cells by NK92MI-mCD16a-hFceRI cells [2]: 0.19 nM
- EC50 [3]: 0.23 nM
- EC50 [4]: 0.33 nM
- EC50 [5]: 0.07 nM
- EC50 [18]: 0.75 nM
- Kd (human ROR1 ECD protein [8]): 10 nM
- koff (human ROR1 ECD protein [8]): 0.00242 s⁻¹
- kon (human ROR1 ECD protein [8]): 241000 M⁻¹ s⁻¹

B6: 3D8-Chi (antibody, human IgG1, kappa, V domains shown)
VH: EVKLVESGGGLVKPGGSLKLSCAASGFTFSSYAMSWVRQTPEKRLEWVASINSGGSTYYPDSVKGRFTISRDNARNILYLQMSSLRSEDTAMYYCARVNYYGYGDYAMDYWGQGTSVTVSS
VL: DIKMTQSPSSMYASLGERVTITCKASQDINSYLSWFQQKPGKSPKTLIYRANRLVDGVPSRFSGSGSGQDYSLTISSLEYEDMGIYYCLQYDEFPYTFGGGTNLEIKR
notes: Variable regions of 3D8.2.3 on human IgG1 / kappa constant regions; also called anti-human ROR1 chimeric antibody 3D8-Chi
- EC50 [13]: 0.28 nM
- EC50 [14]: 0.463 nM
- EC50 [15]: 0.619 nM
- EC50 [16]: 0.62 nM
- fold stronger affinity than UC961 (by KD) (human ROR1 ECD protein [7]): 2 fold
- Kd (human ROR1 ECD protein [17]): 8.09 nM
- koff (human ROR1 ECD protein [17]): 0.00381 s⁻¹
- kon (human ROR1 ECD protein [17]): 471000 M⁻¹ s⁻¹

B7: 38F8-Chi (antibody, human IgG1, kappa, V domains shown)
VH: EVKLVESGGDLVKPGGSLKLSCTASGFTFSNYAMSWVRQTPEKRLEWVASISSGGPTYYPDSVKGRFTVSRDNARNILYLQMSSLRSEDTAMYYCARGYRYDVNWYFDVWGAGTSVTVSS
VL: B6 VL with S34T, Y49H, N103K
notes: Variable regions of 38F8.1.1 on human IgG1 / kappa constant regions; also called anti-human ROR1 chimeric antibody 38F8-Chi
- EC50 [13]: 0.091 nM
- EC50 [14]: 0.22 nM
- EC50 [15]: 0.563 nM
- EC50 [16]: 0.416 nM
- fold stronger affinity than UC961 (by KD) (human ROR1 ECD protein [7]): 5 fold
- Kd (human ROR1 ECD protein [17]): 3.17 nM
- koff (human ROR1 ECD protein [17]): 0.00299 s⁻¹
- kon (human ROR1 ECD protein [17]): 942000 M⁻¹ s⁻¹
